The values that follow come from IntAct's records for PubMed 21454543.

For the first assay, the target named is rac1_human RAC1 (UniProt P63000).
Consider “Leucine-rich repeat serine/threonine-protein kinase 2 (Homo sapiens), Q5S007 G2019S”, for which the “effect of a mutation on the interaction” value is given as “decreasing interaction”.

Take “Leucine-rich repeat serine/threonine-protein kinase 2 (Homo sapiens), Q5S007 I2020T”: the “effect of a mutation on the interaction” value is reported as “increasing interaction”.

For the substance “Leucine-rich repeat serine/threonine-protein kinase 2 (Homo sapiens), Q5S007 K1906M”, the “effect of a mutation on the interaction” value is given as “decreasing interaction”.

For the substance “Leucine-rich repeat serine/threonine-protein kinase 2 (Homo sapiens), Q5S007 R1441C”, the “effect of a mutation on the interaction” value is reported as “disrupting interaction”.

Consider “Leucine-rich repeat serine/threonine-protein kinase 2 (Homo sapiens), Q5S007 Y1699C”, for which the “effect of a mutation on the interaction” value is “increasing interaction”.

A further assay addresses lrrk2_human LRRK2 (UniProt Q5S007).
In the case of “Ras-related C3 botulinum toxin substrate 1 (Homo sapiens) (from UniProt P63000) T17N”, the “effect of a mutation on the interaction” value is “decreasing interaction”.
